Source: the supplement of paper PMC10065799, “High-throughput profiling of sequence recognition by tyrosine kinases and SH2 domains using bacterial peptide display” (eLife, 2023)

How the values were obtained:
AncSZ = experiment: phosphorylation enrichment, bacterial display (enrichment ratio); higher = better substrate or ligand; peptides without Tyr show the background
Fes = Fes (UniProt P07332); experiment: as above
Fer (mouse) = experiment: as above
Fyn = Fyn (UniProt P06241); experiment: as above
EPHB1 = EPHB1 (UniProt P54762); experiment: as above
Hck = Hck (UniProt P08631); experiment: as above
FGFR1 = FGFR1 (UniProt P11362); experiment: as above
Jak2 = Jak2 (UniProt O60674); experiment: as above
FGFR3 = FGFR3 (UniProt P22607); experiment: as above
c-Src = experiment: as above
c-Abl (mouse) = experiment: as above
MERTK = MERTK (UniProt Q12866); experiment: as above
EPHB2 = EPHB2 (UniProt P29323); experiment: as above
c-Src SH2 = experiment: SH2 binding enrichment of the phosphorylated peptide, bacterial display (enrichment ratio); higher = better substrate or ligand; peptides without Tyr show the background
SHP2-C SH2 = experiment: as above
Grb2 SH2 = Grb2 SH2 (UniProt P62993); experiment: as above
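For SH2 binding enrichment of the phosphorylated peptide, bacterial display in this document: peptide library displayed on the E. coli surface as eCPX fusions, selected cells deep-sequenced, score is each peptide's frequency after selection divided by its frequency in the input.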
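For phosphorylation enrichment, bacterial display in this document: 11-residue human phosphosite peptides and single-mutation variants displayed on the E. coli surface, counted by deep sequencing, each peptide's frequency after selection divided by its frequency in the unselected input library; frequency after pTyr selection over input frequency; kinase dosed for 20-30% of maximal phosphorylation in three min.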

Jak2, sequence (O60674 whole entry, looked up): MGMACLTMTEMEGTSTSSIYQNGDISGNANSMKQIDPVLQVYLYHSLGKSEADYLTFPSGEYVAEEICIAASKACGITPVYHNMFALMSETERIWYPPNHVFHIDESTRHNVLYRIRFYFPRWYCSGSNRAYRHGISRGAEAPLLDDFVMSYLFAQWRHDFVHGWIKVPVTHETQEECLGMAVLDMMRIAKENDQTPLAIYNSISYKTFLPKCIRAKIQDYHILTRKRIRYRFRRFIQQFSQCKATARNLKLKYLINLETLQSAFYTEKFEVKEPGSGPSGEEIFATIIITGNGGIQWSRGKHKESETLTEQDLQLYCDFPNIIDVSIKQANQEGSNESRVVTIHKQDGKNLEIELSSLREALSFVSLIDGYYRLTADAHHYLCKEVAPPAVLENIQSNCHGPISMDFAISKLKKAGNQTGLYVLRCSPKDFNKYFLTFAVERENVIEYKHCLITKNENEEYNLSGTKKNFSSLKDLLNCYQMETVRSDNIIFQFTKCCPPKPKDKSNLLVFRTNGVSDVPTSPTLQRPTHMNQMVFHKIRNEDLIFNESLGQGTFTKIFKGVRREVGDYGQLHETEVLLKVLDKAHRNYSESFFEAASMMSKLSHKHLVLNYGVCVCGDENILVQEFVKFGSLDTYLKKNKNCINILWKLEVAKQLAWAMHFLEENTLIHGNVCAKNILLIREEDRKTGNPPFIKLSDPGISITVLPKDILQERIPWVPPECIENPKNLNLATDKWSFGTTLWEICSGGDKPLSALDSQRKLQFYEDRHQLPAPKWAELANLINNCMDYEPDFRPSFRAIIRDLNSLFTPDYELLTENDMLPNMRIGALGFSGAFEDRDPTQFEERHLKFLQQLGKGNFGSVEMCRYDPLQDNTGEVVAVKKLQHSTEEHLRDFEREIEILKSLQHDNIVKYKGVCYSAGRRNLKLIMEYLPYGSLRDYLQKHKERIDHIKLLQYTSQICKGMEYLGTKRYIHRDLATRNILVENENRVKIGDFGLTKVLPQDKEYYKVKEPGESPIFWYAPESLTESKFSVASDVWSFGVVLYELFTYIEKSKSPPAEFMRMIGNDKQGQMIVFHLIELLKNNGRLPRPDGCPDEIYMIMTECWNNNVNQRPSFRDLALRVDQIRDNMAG
Hck, sequence (P08631 whole entry, looked up): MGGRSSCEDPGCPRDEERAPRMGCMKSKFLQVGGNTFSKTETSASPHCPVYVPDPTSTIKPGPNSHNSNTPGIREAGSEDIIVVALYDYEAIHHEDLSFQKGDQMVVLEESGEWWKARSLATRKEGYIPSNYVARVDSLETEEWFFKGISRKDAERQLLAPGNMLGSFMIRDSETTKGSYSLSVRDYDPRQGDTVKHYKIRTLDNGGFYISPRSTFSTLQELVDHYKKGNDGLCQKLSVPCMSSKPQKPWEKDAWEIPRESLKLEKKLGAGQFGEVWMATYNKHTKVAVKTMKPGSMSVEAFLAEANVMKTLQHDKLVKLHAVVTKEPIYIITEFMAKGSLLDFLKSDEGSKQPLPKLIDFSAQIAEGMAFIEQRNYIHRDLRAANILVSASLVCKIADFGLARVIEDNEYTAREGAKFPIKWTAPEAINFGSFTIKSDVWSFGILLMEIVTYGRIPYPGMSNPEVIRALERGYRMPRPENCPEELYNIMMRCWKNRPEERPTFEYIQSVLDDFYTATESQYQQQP
Fyn, sequence (P06241 whole entry, looked up): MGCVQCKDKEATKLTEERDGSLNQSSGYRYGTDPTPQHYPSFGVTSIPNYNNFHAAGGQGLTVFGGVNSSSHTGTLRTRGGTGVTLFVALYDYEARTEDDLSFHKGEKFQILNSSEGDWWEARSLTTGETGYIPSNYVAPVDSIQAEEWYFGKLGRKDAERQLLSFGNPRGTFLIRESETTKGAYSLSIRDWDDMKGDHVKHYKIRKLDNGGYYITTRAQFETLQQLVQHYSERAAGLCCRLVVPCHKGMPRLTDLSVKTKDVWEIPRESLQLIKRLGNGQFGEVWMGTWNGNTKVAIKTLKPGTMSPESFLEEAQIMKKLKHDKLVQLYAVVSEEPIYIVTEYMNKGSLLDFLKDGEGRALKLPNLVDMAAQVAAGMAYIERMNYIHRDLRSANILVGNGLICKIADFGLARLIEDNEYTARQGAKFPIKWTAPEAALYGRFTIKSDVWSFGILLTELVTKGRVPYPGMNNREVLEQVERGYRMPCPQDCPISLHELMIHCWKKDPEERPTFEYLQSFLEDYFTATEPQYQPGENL
FGFR3, sequence (P22607 whole entry, looked up): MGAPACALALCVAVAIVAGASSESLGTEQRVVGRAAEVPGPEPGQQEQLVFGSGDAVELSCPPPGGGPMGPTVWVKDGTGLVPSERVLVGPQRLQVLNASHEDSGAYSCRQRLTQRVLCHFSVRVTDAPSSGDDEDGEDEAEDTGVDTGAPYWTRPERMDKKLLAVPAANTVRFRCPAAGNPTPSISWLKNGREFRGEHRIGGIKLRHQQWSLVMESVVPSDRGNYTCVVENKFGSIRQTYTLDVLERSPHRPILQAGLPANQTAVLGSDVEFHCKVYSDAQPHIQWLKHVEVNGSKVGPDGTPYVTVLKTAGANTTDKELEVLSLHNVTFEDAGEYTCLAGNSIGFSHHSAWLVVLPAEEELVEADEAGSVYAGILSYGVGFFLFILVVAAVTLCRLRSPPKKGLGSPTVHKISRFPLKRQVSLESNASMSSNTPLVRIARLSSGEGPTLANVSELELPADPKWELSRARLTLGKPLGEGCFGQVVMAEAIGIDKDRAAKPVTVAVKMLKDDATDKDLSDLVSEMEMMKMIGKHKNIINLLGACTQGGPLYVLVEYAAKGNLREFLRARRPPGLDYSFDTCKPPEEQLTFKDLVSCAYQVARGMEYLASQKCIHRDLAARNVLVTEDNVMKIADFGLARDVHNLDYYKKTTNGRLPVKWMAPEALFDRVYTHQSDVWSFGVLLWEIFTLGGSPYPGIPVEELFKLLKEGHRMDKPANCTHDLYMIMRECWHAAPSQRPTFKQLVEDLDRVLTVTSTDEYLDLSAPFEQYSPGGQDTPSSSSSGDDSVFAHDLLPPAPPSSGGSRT
FGFR1, sequence (P11362 whole entry, looked up): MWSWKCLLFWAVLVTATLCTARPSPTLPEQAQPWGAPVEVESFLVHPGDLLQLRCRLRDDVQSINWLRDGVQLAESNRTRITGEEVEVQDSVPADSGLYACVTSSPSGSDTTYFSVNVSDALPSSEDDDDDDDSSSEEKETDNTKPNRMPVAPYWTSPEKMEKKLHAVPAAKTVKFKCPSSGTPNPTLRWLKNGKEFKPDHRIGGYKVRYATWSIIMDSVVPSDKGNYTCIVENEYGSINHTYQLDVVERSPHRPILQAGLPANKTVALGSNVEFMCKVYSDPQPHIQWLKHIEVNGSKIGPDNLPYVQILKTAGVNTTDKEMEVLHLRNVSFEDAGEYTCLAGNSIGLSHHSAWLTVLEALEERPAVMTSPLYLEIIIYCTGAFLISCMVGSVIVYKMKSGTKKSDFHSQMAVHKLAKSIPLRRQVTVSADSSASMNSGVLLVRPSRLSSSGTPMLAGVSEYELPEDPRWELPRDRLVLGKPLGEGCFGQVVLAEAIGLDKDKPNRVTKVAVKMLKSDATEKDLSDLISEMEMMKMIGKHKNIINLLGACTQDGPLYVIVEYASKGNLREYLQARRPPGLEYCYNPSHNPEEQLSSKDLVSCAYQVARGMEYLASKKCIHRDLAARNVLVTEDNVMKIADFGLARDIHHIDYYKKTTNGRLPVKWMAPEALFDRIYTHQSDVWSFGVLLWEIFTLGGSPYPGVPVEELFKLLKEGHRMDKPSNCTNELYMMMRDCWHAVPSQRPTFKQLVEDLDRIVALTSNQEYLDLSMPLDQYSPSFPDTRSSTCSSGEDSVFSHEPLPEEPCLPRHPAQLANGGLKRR
Fes, sequence (P07332 whole entry, looked up): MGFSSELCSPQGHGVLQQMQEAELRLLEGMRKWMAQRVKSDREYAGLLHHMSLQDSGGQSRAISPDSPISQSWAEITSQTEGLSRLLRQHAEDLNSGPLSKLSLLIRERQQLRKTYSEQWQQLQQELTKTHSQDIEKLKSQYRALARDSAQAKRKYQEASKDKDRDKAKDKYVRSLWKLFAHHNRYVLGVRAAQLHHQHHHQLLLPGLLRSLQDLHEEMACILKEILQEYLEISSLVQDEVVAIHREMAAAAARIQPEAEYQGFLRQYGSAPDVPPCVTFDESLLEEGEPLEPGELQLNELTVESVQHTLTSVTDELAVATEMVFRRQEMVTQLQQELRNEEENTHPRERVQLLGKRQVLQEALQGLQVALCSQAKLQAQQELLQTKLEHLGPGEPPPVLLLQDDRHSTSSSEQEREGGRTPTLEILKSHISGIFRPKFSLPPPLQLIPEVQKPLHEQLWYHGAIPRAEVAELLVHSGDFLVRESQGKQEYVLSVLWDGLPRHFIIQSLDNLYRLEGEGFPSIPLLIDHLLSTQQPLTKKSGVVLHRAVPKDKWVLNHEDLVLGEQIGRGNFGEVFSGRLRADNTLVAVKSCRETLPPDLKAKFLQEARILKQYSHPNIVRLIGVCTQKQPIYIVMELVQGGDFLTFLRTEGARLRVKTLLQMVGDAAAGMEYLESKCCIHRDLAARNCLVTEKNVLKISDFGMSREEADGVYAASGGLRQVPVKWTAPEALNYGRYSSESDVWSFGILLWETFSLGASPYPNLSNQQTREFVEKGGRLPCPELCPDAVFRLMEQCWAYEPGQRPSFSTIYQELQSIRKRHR

Sequence | SH2 binding enrichment (c-Src SH2) | SH2 binding enrichment (SHP2-C SH2) | SH2 binding enrichment (Grb2 SH2) | phosphorylation enrichment (AncSZ) | phosphorylation enrichment (Fes) | phosphorylation enrichment (Fer (mouse)) | phosphorylation enrichment (Fyn) | phosphorylation enrichment (EPHB1) | phosphorylation enrichment (Hck) | phosphorylation enrichment (FGFR1) | phosphorylation enrichment (Jak2) | phosphorylation enrichment (FGFR3) | phosphorylation enrichment (c-Src) | phosphorylation enrichment (c-Abl (mouse)) | phosphorylation enrichment (MERTK) | phosphorylation enrichment (EPHB2)
TLNHQYDFTFD [CSNK1A1_Y292_YF] | 8.5 | 0.701 | 0.844 | 1.22 | 1.07 | 0.543 | 0.507 | 0.553 | 0.495 | 0.57 | 0.989 | 0.653 | 0.485 | 0.705 | 0.6 | 0.543
GMTRNYIIFIE [BCO2_Y294] | 1.18 | 1.32 | 1.34 | 0.96 | 0.921 | 0.447 | 0.567 | 0.649 | 0.563 | 0.599 | 0.885 | 0.745 | 0.498 | 0.49 | 0.487 | 0.67
AEVIWYKGDEV | 0.475 | 0.684 | 0.822 | 1.13 | 1.41 | 0.491 | 0.394 | 0.707 | 0.602 | 0.433 | 1.42 | 0.784 | 0.474 | 1.15 | 0.399 | 0.572
EFISEHCGEII [EZH2_Y641_Y641H] | 0.633 | 0.784 | 0.831 | 1.35 | 1.31 | 0.652 | 0.639 | 0.733 | 0.602 | 0.544 | 1.17 | 0.722 | 0.56 | 0.806 | 0.658 | 0.644
FQKNVYSEELR [LMNA_Y211_I210V] | 0.566 | 0.591 | 1.24 | 0.674 | 0.727 | 0.417 | 0.613 | 0.456 | 0.486 | 0.418 | 0.672 | 0.449 | 0.68 | 0.535 | 0.518 | 0.48
PGPQSYPTVTG [PAX5_Y299_I301T] | 0.513 | 0.824 | 0.787 | 0.819 | 0.888 | 0.63 | 0.828 | 0.79 | 0.582 | 0.811 | 0.892 | 0.539 | 0.594 | 1.06 | 0.707 | 0.725
SDQPDYDSVAS [GIT2_Y392_N387S] | 0.526 | 0.735 | 0.783 | 1.29 | 1.27 | 0.739 | 0.565 | 0.655 | 0.594 | 0.625 | 1.09 | 0.693 | 0.525 | 0.729 | 0.499 | 0.726
ETKGDYEKILV [ANXA1_Y335] | 1.08 | 0.54 | 0.815 | 1.16 | 1.17 | 1.04 | 0.506 | 0.713 | 0.651 | 0.548 | 1.01 | 0.682 | 0.523 | 0.82 | 0.454 | 0.625
LASSEYPVRRR [GALK1_Y236] | 0.336 | 0.426 | 0.512 | 0.62 | 0.612 | 0.363 | 0.543 | 0.542 | 0.514 | 0.45 | 0.475 | 0.496 | 0.572 | 0.448 | 0.526 | 0.472
AGKEEYSAMRD [HRAS_Y64_Q61K] | 0.761 | 0.559 | 0.867 | 0.799 | 0.871 | 0.481 | 0.432 | 0.467 | 0.49 | 0.529 | 0.644 | 0.582 | 0.436 | 0.629 | 0.44 | 0.505
KKLAEYGPQGK [CLCA1_Y147_R152K] | 0.491 | 0.609 | 0.769 | 0.361 | 0.498 | 0.326 | 0.401 | 0.334 | 0.401 | 0.369 | 0.366 | 0.295 | 0.348 | 0.427 | 0.273 | 0.324
EPSVPYRGMVF [GLI3_Y104_T107M] | 0.414 | 0.567 | 0.804 | 0.704 | 0.816 | 0.38 | 0.413 | 0.43 | 0.376 | 0.422 | 0.639 | 0.508 | 0.462 | 0.471 | 0.432 | 0.56
FLTQHYDAKPQ [ANG_Y38] | 0.481 | 0.64 | 0.902 | 0.732 | 0.741 | 0.658 | 0.583 | 0.637 | 0.67 | 1.14 | 0.869 | 0.58 | 0.609 | 0.613 | 0.557 | 0.581
GMRHGHGVRQS [JPH2_Y141_Y141H] | 1 | 1.31 | 1.27 | 0.646 | 0.803 | 0.529 | 0.419 | 0.775 | 0.495 | 0.471 | 0.975 | 0.696 | 0.529 | 1.28 | 0.462 | 0.45
SCTFTCLLGDR [ETHE1_Y38_Y38C] | 0.945 | 0.98 | 1.01 | 0.916 | 1.03 | 0.458 | 0.458 | 0.45 | 0.414 | 0.488 | 0.84 | 0.669 | 0.387 | 0.737 | 0.465 | 0.536
FSLIHYAGIVV [MYH7_Y582_D587V] | 0.689 | 2.77 | 1.01 | 1.13 | 1.37 | 0.729 | 0.532 | 0.652 | 0.568 | 0.482 | 1.3 | 0.777 | 0.621 | 1.04 | 0.45 | 0.59
VGTKWYMAPEV [ACVRL1_Y375_R374W] | 0.737 | 0.674 | 0.956 | 0.899 | 0.764 | 0.374 | 0.364 | 1.78 | 0.458 | 0.827 | 0.963 | 0.747 | 0.416 | 0.726 | 2.9 | 1.93
SFNNKYGMVAQ [APOB_Y276_K273N_YF] | 0.435 | 0.68 | 0.852 | 0.542 | 0.51 | 0.399 | 0.395 | 0.332 | 0.422 | 0.4 | 0.509 | 0.469 | 0.384 | 0.462 | 0.431 | 0.504
EPFEVYRIVPE [IRF8_Y110_K108E_YF] | 0.521 | 0.535 | 0.916 | 1.05 | 1.03 | 0.411 | 3.41 | 0.662 | 2.37 | 1.25 | 0.882 | 1.03 | 3.68 | 0.798 | 0.62 | 0.72
IGHGSYAKVLL [PRKCZ_Y263_R260H] | 4.8 | 26.8 | 0.868 | 0.728 | 0.805 | 0.68 | 0.624 | 0.536 | 0.523 | 0.517 | 0.662 | 0.635 | 0.454 | 0.599 | 0.57 | 0.656
WCKPPYFSCAV [MMS22L_Y28] | 1.34 | 1.18 | 1.29 | 1.06 | 0.908 | 0.474 | 0.459 | 0.506 | 0.432 | 0.512 | 0.845 | 0.656 | 0.459 | 0.656 | 0.418 | 0.562
PATYTYDEYKK [COL8A2_Y648] | 1.48 | 0.799 | 0.551 | 1.43 | 1.3 | 0.558 | 1.67 | 0.745 | 1.55 | 0.749 | 0.868 | 0.728 | 3.07 | 1.38 | 1.02 | 0.883

The next lines start with results.

SH2 binding enrichment (c-Src SH2) | SH2 binding enrichment (SHP2-C SH2) | SH2 binding enrichment (Grb2 SH2) | Sequence | phosphorylation enrichment (AncSZ) | phosphorylation enrichment (Fes) | phosphorylation enrichment (Fer (mouse)) | phosphorylation enrichment (Fyn) | phosphorylation enrichment (EPHB1) | phosphorylation enrichment (Hck) | phosphorylation enrichment (FGFR1) | phosphorylation enrichment (Jak2) | phosphorylation enrichment (FGFR3) | phosphorylation enrichment (c-Src) | phosphorylation enrichment (c-Abl (mouse)) | phosphorylation enrichment (MERTK) | phosphorylation enrichment (EPHB2)
1.11 | 1.24 | 1.36 | LHAAAYWNALA [UQCRC2_Y182_R183W] | 0.769 | 0.882 | 0.385 | 0.388 | 0.419 | 0.428 | 0.379 | 0.926 | 0.564 | 0.424 | 0.582 | 0.461 | 0.572
9.41 | 1.22 | 37.5 | YENGEYIIRQG [PRKG1_Y247] | 1.11 | 1.04 | 0.418 | 0.453 | 0.552 | 0.589 | 0.432 | 0.913 | 0.611 | 0.542 | 0.66 | 0.386 | 0.555
1.27 | 1.17 | 1.22 | FSALDYKIFYY [WDPCP_Y210_L205F] | 1.38 | 1.45 | 0.529 | 0.613 | 0.928 | 0.473 | 1.23 | 1.4 | 1.18 | 0.763 | 1.2 | 0.462 | 0.588
5.09 | 0.626 | 0.736 | LIEQAYDNLHE [PRPF8_Y871_P874L] | 1.44 | 1.38 | 0.821 | 0.714 | 0.623 | 1.15 | 0.6 | 0.593 | 1.05 | 0.325 | 0.479 | 0.426 | 0.877
0.685 | 0.589 | 0.683 | WEPFGYAVTRC [PTPRT_Y412] | 0.947 | 0.999 | 0.458 | 0.402 | 0.591 | 0.479 | 0.547 | 0.915 | 0.707 | 0.382 | 0.673 | 0.345 | 0.567
3.02 | 16.1 | 1.04 | YSSLGYPPPEG [ZSWIM4_Y87] | 0.741 | 0.793 | 0.67 | 2.36 | 0.511 | 1.66 | 1.06 | 0.568 | 0.821 | 1.22 | 0.66 | 7.49 | 0.508
0.594 | 0.543 | 0.852 | AAQNCYKVTNG [TPI1_Y105] | 0.725 | 0.905 | 0.391 | 0.411 | 0.37 | 0.408 | 0.523 | 0.665 | 0.536 | 0.356 | 0.738 | 0.411 | 0.421
4.4 | 1.82 | 1.17 | CTTFHYNYMCN [TP53_Y234_I232F] | 1.03 | 1.05 | 0.659 | 0.547 | 0.809 | 0.514 | 0.696 | 0.842 | 0.713 | 0.507 | 0.955 | 0.475 | 0.629
0.442 | 0.556 | 0.791 | ECKASCPGKIT [PRSS3_Y232_Y232C] | 0.461 | 0.536 | 0.453 | 0.401 | 0.336 | 0.351 | 0.404 | 0.402 | 0.44 | 0.359 | 0.577 | 0.468 | 0.335
2.54 | 3.37 | 0.804 | MGSYNYLGFAR [SPTLC2_Y178] | 0.831 | 1.05 | 0.707 | 0.758 | 2.42 | 2.99 | 1.3 | 2.89 | 1.04 | 1.1 | 0.956 | 6.56 | 0.949
0.885 | 0.537 | 0.62 | QRALLYEDTLY [UNC13D_Y56_A59T] | 1.54 | 2.2 | 12.1 | 3.98 | 15.2 | 4.67 | 0.648 | 0.942 | 1.02 | 3.24 | 0.819 | 6 | 12.5
